From patent US20210130420A1, “RECOMBINANT BINDING PROTEINS TARGETING HER2 AND SERUM ALBUMIN, AND THEIR USES” (Molecular Partners AG, priority 2016, published 2021)
“Also recorded” adds a separate entry of the source.

How the values were obtained:
Format in all cases: in vivo
[1] = tested on: BT474 human breast carcinoma cells; assay: BT474 breast cancer tumor xenograft mouse model
Procedure: Protein #21-His, Protein #23-His, Protein #24-His, Protein #25-His were expressed and purified as described in Example 1. […] BT474 breast cancer tumor xenograft mouse models were essentially performed as follows using procedures well known to the person skilled in the art: BT474 human breast carcinoma cells were cultured, resuspended, and 2*10^7 cells in 200 μl RPMI 1640 medium containing 50:50 matrigel (BD Biosciences) per mouse were injected into the right flank of female Balb/c nude mice. […] Tumor volumes were measured for 32 days.
In a similar study using BT474 cells (identical setup and procedure; all 35 mg/kg doses), Protein #21-His was compared to Protein #23-His, Protein #24-His, and Protein #25-His.

[2] = Pharmacokinetic analysis in cynomolgus monkey
Procedure: The measurements shown in this example are the result of a half-life engineering effort as described in Example 11. Protein #21-His, Protein #23-His, and Protein #24-His were expressed and purified as described in Example 1. The pharmacokinetic properties of the proteins were assessed in cynomolgus monkey. Proteins were administered via intravenous infusion for 30 min at a target dose level of between 1 mg/kg to cynomolgus monkeys. Blood samples were collected pre-dose and again at selected time points, for example 5 min, 10 min, 0.5 hours, 1 hour, 2 hours, 4 hours, 8 hours, 12 hours, 24 hours, 48 hours, 72 hours, 96 hours, 120 hours, 144 hours, 168 hours, 192 hours, 216 hours, and 240 hours post-end of infusion (i.e. post-injection). The blood samples were allowed to stand at room temperature and were centrifuged to generate serum, followed by storage at −80° C. pending analyses. Pharmacokinetic parameters were determined using procedures well known to the person skilled in the art. Serum concentrations of proteins were determined by sandwich ELISA using a rabbit monoclonal anti-designed ankyrin repeat domain antibody as capture reagent and murine monoclonal anti-designed ankyrin repeat domain antibody as detection reagent, and using a standard curve. Pharmacokinetic parameters were determined using standard software such as Phoenix WinNonLin (Certara, Princeton, USA) or Graph Pad Prism (GraphPad Software, La Jolla, USA) and standard analyses such as non-compartmental analyses. […] Target mediated clearance is well-known to the person skilled in the art and is known from e.g. antibodies targeting HER2.
Similarly, Protein #21-His was expressed and purified as described in Example 1. The pharmacokinetic properties of the proteins were assessed in cynomolgus monkey as described above at 1 mg/kg, 5 mg/kg and 10 mg/kg.
Similar results are observed when testing Protein #21 (expressed and purified as described in Example 1). The pharmacokinetic properties of the proteins are assessed in cynomolgus monkey as described above at 1 mg/kg, 10 mg/kg and 100 mg/kg. Pharmacokinetic parameters are evaluated as described above.
(§1) For the studies in this example Protein #21-His, Protein #24-His, Protein #28-His, Protein #29-His, and Protein #30-His were prepared according to Example 1. Protein #28-His was additionally PEGylated using a 40 kDa PEG moiety (NOF Sunbright GL2-400MA) by maleimid coupling of the PEG-moiety onto the free C-terminal cysteine of Protein #28-His, followed by purification to homogeneity using standard purification methods, procedures well known to the person skilled in the art. Pharmacokinetic analyses in mouse or cynomolgus monkey were performed as described in Examples 8 and 9.

[3] = Pharmacokinetic analysis in mouse
Procedure: The measurements shown in this example are the result of a half-life engineering effort as described in Example 11. Protein #21-His and Protein #23-His were expressed and purified as described in Example 1. The pharmacokinetic properties of the His-tagged proteins were assessed in mouse as described elsewhere (Zahnd, C., Kawe, M., Stumpp, M. T., de Pasquale, C., Tamaskovic, R., Nagy-Davidescu, G., Dreier, B., Schibli, R., Binz, H. K., Waibel, R., Plückthun, A., Cancer Res. 70, 1595-1605, 2010). […] Having SEQ ID NO: 16 present in the recombinant binding protein thus appears to be more favorable than having SEQ ID NO: 18 present.
Polypeptide linkers that link protein domains are well-known to the person skilled in the art. Gly-Ser-rich linkers are well-known from single-chain Fv antibody fragments, where they have proven to be most appropriate to link the two Fv polypeptide chains. […] Protein #26-His and Protein #27-His, were expressed and purified as described in Example 1. Pharmacokinetic analyses in mouse were performed as described in Example 8.
as §1

B1: Protein #21-His: SEQ ID NO: 21 with a His-tag (SEQ ID NO: 1) fused to its N terminus (protein)
chain: MRGSHHHHHHGSDLGKKLLEAARAGQDDEVRELLKAGADVNAKDYFSHTPLHLAARNGHLKIVEVLLKAGADVNAKDFAGKTPLHLAANEGHLEIVEVLLKAGADVNAQDIFGKTPADIAADAGHEDIAEVLQKAAGSPTPTPTTPTPTPTTPTPTPTGSDLGIKLLFAAAKGQDDEVRELLKAGADVNAKDFQGVTPLHIAAQSGHLEIVEVLLKAGADVNAKDVTGDTPLHLAAQHGHLEIVEVLLKAGADVNAQDERGWTPADLAADWGHEDIAEVLQKAAGSPTPTPTTPTPTPTTPTPTPTGSDLGKKLLEAARAGQDDEVRELLKAGADVNAKDEYGLTPLYLATAHGHLEIVEVLLKAGADVNAVDAIGFTPLHLAAFIGHLEIAEVLLKAGADVNAQDKFGKTPADIAAGAGNEDIAEVLQKAAGSPTPTPTTPTPTPTTPTPTPTGSDLGKKLLEAARAGQDDEVRELLKAGADVNAKDYFSHTPLHLAARNGHLKIVEVLLKAGADVNAKDFAGKTPLHLAANEGHLEIVEVLLKAGADVNAQDIFGKTPADIAADAGHEDIAEVLQKAA
modifications: Protein comprising four designed ankyrin repeat domains
[1]; Protein #21-His 35 mg/kg, Trastuzumab 10 mg/kg, i.v. Q3Dx7, tumor volumes measured for 32 days, FIG. 4A
  inhibition of tumor growth: more efficacious in inhibiting tumor growth than Trastuzumab
[1]; after 32 days of treatment, FIG. 4B
  tumor suppression compared to Protein #24-His: significantly better tumor suppression than Protein #24-His
[1]; all 35 mg/kg doses, day 18 of treatment, FIG. 4B
  tumor suppression compared to other recombinant binding proteins: more efficacious in suppressing tumors than Protein #23-His, Protein #24-His, or Protein #25-His; also recorded: significantly more efficacious in inhibiting tumor growth than Protein #24-His
[2]
  concentration below which target-mediated clearance is observed: below 100 nM
[2]; 1 mg/kg, intravenous infusion
  terminal half-life: 47 h
[3]
  % ID remaining after 48 hours: 19.5 % ID
  terminal half-life: 30.4 h
